Test results: patent US20230357342A1 (published 2023)
Residue numbers refer to the chain shown, from its start. Numbers in names are those of the source.

T1: IL-18 receptor on HEK-Blue IL18R reporter cells (UniProt Q13478 19-541; O95256 20-599, limits assumed)
T1 sequence (looked up) 1: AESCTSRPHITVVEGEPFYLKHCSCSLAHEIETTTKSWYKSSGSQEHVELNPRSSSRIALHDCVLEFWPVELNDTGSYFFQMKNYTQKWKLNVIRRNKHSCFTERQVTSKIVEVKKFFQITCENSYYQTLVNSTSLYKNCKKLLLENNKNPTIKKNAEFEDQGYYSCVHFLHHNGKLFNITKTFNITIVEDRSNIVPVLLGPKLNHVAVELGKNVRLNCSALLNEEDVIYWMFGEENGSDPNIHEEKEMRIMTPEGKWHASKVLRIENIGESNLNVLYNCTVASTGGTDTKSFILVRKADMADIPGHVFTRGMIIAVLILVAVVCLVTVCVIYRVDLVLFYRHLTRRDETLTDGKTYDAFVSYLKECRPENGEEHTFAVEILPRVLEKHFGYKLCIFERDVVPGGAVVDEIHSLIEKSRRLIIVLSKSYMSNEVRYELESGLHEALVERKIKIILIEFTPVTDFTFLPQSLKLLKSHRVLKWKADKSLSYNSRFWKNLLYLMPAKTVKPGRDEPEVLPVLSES
T1 sequence (looked up) 2: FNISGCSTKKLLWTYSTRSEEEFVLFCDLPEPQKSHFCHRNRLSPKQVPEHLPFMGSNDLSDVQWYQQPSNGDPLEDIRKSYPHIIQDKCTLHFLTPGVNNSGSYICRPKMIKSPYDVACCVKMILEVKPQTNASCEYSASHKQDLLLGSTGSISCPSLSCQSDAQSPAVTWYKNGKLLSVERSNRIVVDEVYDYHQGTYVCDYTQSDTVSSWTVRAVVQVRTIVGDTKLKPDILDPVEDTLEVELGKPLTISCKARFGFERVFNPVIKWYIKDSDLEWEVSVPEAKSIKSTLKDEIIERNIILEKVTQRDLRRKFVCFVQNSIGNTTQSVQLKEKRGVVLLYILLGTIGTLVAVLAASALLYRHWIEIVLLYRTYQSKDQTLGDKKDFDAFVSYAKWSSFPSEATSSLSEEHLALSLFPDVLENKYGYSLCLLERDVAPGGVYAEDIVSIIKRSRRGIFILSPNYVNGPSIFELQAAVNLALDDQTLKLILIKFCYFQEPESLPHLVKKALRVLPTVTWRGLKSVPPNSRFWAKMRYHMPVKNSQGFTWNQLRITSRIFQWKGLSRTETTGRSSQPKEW

T2: IL-18Rα/β heterodimer (Fc fused human IL-18Rα mixed with Fc fused human IL-18Rβ) (human, UniProt Q13478 19-329; O95256 20-356)
T2 construct: 6 µg/mL of alpha and beta receptors were mixed and pre-incubated 30 min before capture on anti-human IgG; also called alpha/beta heterodimer IL-18 receptor; heterodimeric human IL-18 receptor alpha (CD218a) and IL-18R accessory protein (IL-18RAP/CDw218b); not shown: Fc portion
T2 sequence (looked up) 1: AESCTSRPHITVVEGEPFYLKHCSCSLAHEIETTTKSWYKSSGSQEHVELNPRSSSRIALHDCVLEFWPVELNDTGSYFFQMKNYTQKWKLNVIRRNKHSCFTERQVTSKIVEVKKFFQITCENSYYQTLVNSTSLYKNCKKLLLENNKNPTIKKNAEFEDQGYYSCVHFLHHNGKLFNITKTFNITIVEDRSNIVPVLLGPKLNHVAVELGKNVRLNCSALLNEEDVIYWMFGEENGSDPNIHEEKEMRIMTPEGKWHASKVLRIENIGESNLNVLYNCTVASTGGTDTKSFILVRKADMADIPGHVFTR
T2 sequence (looked up) 2: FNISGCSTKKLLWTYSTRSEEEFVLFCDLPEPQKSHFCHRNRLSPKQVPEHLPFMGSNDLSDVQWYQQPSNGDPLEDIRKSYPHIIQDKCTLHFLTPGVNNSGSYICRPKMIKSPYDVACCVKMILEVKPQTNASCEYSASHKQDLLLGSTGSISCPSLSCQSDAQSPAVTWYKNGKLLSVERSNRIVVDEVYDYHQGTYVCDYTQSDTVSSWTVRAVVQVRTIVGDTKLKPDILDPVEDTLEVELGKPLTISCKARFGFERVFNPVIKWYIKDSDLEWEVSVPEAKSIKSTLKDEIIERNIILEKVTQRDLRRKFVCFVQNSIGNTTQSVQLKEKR

T3: Fc fused human IL-18Rα (human, UniProt Q13478 19-329)
T3 construct: captured by anti-human IgG on a CM5 chip; also called IL-18Rα monomer; human IL-18 receptor alpha (CD218a); not shown: Fc portion
T3 sequence (looked up): T2 sequence (looked up) 1

B1: modified IL-18 polypeptide SEQ ID NO: 241 (N-terminal 4xG, E6K, V11I, C38A, K53A, T63A, C76A, C127A) (ligand)
chain: GGGGYFGKLKSKLSIIRNLNDQVLFIDQGNRPLFEDMTDSDARDNAPRTIFIISMYADSQPRGMAVAISVKCEKISTLSAENKIISFKEMNPPDNIKDTKSDIIFFQRSVPGHDNKMQFESSSYEGYFLAAEKERDLFKLILKKEDELGDRSIMFTVQNED
B2: modified IL-18 polypeptide SEQ ID NO: 57 (E6K, C38S, K53A) (ligand)
chain: YFGKLKSKLSVIRNLNDQVLFIDQGNRPLFEDMTDSDSRDNAPRTIFIISMYADSQPRGMAVTISVKCEKISTLSCENKIISFKEMNPPDNIKDTKSDIIFFQRSVPGHDNKMQFESSSYEGYFLACEKERDLFKLILKKEDELGDRSIMFTVQNED
B3: modified IL-18 polypeptide SEQ ID NO: 224 (V11I, C38A, C76A, Q103K, C127A) (ligand)
chain: B2 chain with K6E, V11I, S38A, A53K, C76A, Q103K, C127A
B4: modified IL-18 polypeptide SEQ ID NO: 223 (K8E, V11I, C38A, C76A, Q103R, C127A) (ligand)
chain: B2 chain with K6E, K8E, V11I, S38A, A53K, C76A, Q103R, C127A
B5: modified IL-18 polypeptide SEQ ID NO: 238 (E6K, V11I, C38A, K53A, T63A, C76A, C127A, V153Y) (ligand)
chain: B2 chain with V11I, S38A, T63A, C76A, C127A, V153Y
B6: modified IL-18 polypeptide SEQ ID NO: 227 (V11I, C38A, S55T, C76A, C127A) (ligand)
chain: B2 chain with K6E, V11I, S38A, A53K, S55T, C76A, C127A
B7: modified IL-18 polypeptide SEQ ID NO: 222 (K8R, V11I, C38A, C76A, Q103E, C127A) (ligand)
chain: B2 chain with K6E, K8R, V11I, S38A, A53K, C76A, Q103E, C127A
B8: modified IL-18 polypeptide SEQ ID NO: 240 (E6R, V11I, C38A, K53A, T63A, C76A, C127A) (ligand)
chain: B2 chain with K6R, V11I, S38A, T63A, C76A, C127A
B9: modified IL-18 polypeptide SEQ ID NO: 225 (V11I, C38A, S55H, C76A, C127A) (ligand)
chain: B2 chain with K6E, V11I, S38A, A53K, S55H, C76A, C127A
B10: modified IL-18 polypeptide SEQ ID NO: 226 (V11I, C38A, S55R, C76A, C127A) (ligand)
chain: B2 chain with K6E, V11I, S38A, A53K, S55R, C76A, C127A
B11: modified IL-18 polypeptide SEQ ID NO: 232 (E6K, V11I, C38A, I49M, K53A, T63A, C76A, C127A) (ligand)
chain: B2 chain with V11I, S38A, I49M, T63A, C76A, C127A
B12: modified IL-18 polypeptide SEQ ID NO: 230 (K8L, E6K, V11I, C38A, K53A, T63A, C76A, C127A) (ligand)
chain: B2 chain with K8L, V11I, S38A, T63A, C76A, C127A
B13: modified IL-18 polypeptide SEQ ID NO: 229 (V11I, C38A, C76A, S105K, C127A) (ligand)
chain: B2 chain with K6E, V11I, S38A, A53K, C76A, S105K, C127A
B14: modified IL-18 polypeptide SEQ ID NO: 228 (V11I, C38A, C76A, S105I, C127A) (ligand)
chain: B2 chain with K6E, V11I, S38A, A53K, C76A, S105I, C127A
B15: modified IL-18 polypeptide SEQ ID NO: 234 (E6K, V11I, C38A, K53A, T63A, C76A, Q103R, C127A) (ligand)
chain: B2 chain with V11I, S38A, T63A, C76A, Q103R, C127A
B16: modified IL-18 polypeptide SEQ ID NO: 243 (Y1M, E6K, V11I, C38A, K53A, T63A, C76A, C127A) (ligand)
chain: B2 chain with Y1M, V11I, S38A, T63A, C76A, C127A
B17: modified IL-18 polypeptide SEQ ID NO: 221 (V11I, C38A, K53A, C76A, D110A, C127A) (ligand)
chain: B2 chain with K6E, V11I, S38A, C76A, D110A, C127A
B18: modified IL-18 polypeptide SEQ ID NO: 235 (E6K, K8E, V11I, C38A, K53A, T63A, C76A, Q103R, C127A) (ligand)
chain: B2 chain with K8E, V11I, S38A, T63A, C76A, Q103R, C127A
B19: modified IL-18 polypeptide SEQ ID NO: 239 (E6K, V11I, C38A, M51G, K53A, T63A, C76A, C127A) (ligand)
chain: B2 chain with V11I, S38A, M51G, T63A, C76A, C127A
B20: modified IL-18 polypeptide SEQ ID NO: 220 (V11I, C38A, K53A, C76A, H109A, C127A) (ligand)
chain: B2 chain with K6E, V11I, S38A, C76A, H109A, C127A
B21: modified IL-18 polypeptide SEQ ID NO: 233 (E6K, V11I, C38A, I49R, K53A, T63A, C76A, C127A) (ligand)
chain: B2 chain with V11I, S38A, I49R, T63A, C76A, C127A
B22: modified IL-18 polypeptide SEQ ID NO: 237 (E6K, V11I, C38A, K53A, T63A, C76A, C127A, V153E) (ligand)
chain: B2 chain with V11I, S38A, T63A, C76A, C127A, V153E
B23: modified IL-18 polypeptide SEQ ID NO: 219 (V11I, C38A, K53A, C76A, G108A, C127A) (ligand)
chain: B2 chain with K6E, V11I, S38A, C76A, G108A, C127A
B24: modified IL-18 polypeptide SEQ ID NO: 242 (N-terminal G, E6K, V11I, C38A, K53A, T63A, C76A, C127A) (ligand)
chain: GYFGKLKSKLSIIRNLNDQVLFIDQGNRPLFEDMTDSDARDNAPRTIFIISMYADSQPRGMAVAISVKCEKISTLSAENKIISFKEMNPPDNIKDTKSDIIFFQRSVPGHDNKMQFESSSYEGYFLAAEKERDLFKLILKKEDELGDRSIMFTVQNED
B25: modified IL-18 polypeptide SEQ ID NO: 244 (N-terminal G, E6K, V11I, C38A, M51G, K53A, T63A, C76A, C127A) (ligand)
chain: B24 chain with M52G

molecular target: T1, IL-18 receptor on HEK-Blue IL18R …; assay: cell-based or functional assay

Row | Binder | EC50, HEK-Blue IL18R reporter (SEAP)
1 | B1 | 2.5 nM
2 | B2 | 0.53 nM
3 | B3 | 1.5 nM
4 | B4 | 2.3 nM
5 | B5 | 0.08 nM
6 | B6 | 4.73 nM
7 | B7 | 2.01 nM
8 | B8 | 0.04 nM
9 | B9 | 3.14 nM
10 | B10 | 1.91 nM
11 | B11 | 0.07 nM
12 | B12 | 0.29 nM
13 | B13 | 7.73 nM
14 | B14 | 5.37 nM
15 | B15 | 0.26 nM
16 | B16 | 0.02 nM
17 | B17 | 2.02 nM
18 | B18 | 0.4 nM
19 | B19 | 0.1 nM
20 | B20 | 19.5 nM
21 | B21 | 0.04 nM
22 | B22 | 0.1 nM
23 | B23 | 15.6 nM
24 | B24 | 1.68 nM
25 | B25 | 14 nM

molecular target: T2, IL-18Rα/β heterodimer (Fc fused human …); assay: SPR, Fc-IL-18Rα and Fc-IL-18Rβ pre-mixed and captured, IL-18 as analyte, heterogeneous ligand model
Method: (§1) The interaction of the wild type and of modified IL-18 polypeptides with human IL-18 receptor subunits are measured with Surface Plasmon Resonance (SPR) technology. Anti-human IgG antibodies are bound by amine coupling onto a CM5 chip to capture 6 μg/mL of Fc fused human IL-18Rα, 6 μg/mL of Fc fused human IL-18Rβ, or 2 μg/mL of Fc fused human IL-18BP isoform a (IL-18BPa) for 30 min before capture. In other settings, 6 μg/mL of alpha and beta IL-18 receptors are mixed and pre-incubated for 30 min before capture of the alpha/beta heterodimer IL-18 receptor.
(§2) The kinetic binding of the IL-18 analytes are measured with a Biacore 8K instrument in two fold serial dilutions starting at 1 μM down to 0.98 nM. Regeneration of the surface back to amine coupled anti IgG antibody is done after every concentration of analyte. To measure the protein association to the receptors, the samples are injected with a flow rate of 50 μL/min for 60 s, followed by 300 s buffer only to detect the dissociation. The used running buffer is 1×PBS with 0.05% Tween20. The relative response units (RU, Y-axis) are plotted against time (s, X-axis) and analyzed in a kinetic 1:1 binding model for the monomer receptor binding and for the binding to the IL-18BP. A kinetic heterogenous ligand fit model is applied for the alpha/beta heterodimer binding.

Row | Binder | Kd | koff | kon
26 | B2 | 2.92 nM | 0.0008 s⁻¹ | 279000 M⁻¹ s⁻¹

molecular target: T3, Fc fused human IL-18Rα; assay: SPR, Fc-IL-18Rα captured via anti-human IgG, IL-18 as analyte, 1:1 model
Method: as §1, §2

Row | Binder | Kd | koff | kon
27 | B2 | 72.4 nM | 0.0151 s⁻¹ | 208000 M⁻¹ s⁻¹
